Assay results as given in patent US20250099504A1 (INSTITUTE OF HEMATOLOGY AND BLOOD DISEASES HOSPITAL CHINESE …, published 2025).

Molecular target: T1, human CD7 (human, UniProt P09564 26-240)
T1 construct: whole, on cells; also called CD7 antigen; CD7 on the surface of Jurkat, Molt4, CCRF-CEM and Hut78 cells
T1 sequence (looked up): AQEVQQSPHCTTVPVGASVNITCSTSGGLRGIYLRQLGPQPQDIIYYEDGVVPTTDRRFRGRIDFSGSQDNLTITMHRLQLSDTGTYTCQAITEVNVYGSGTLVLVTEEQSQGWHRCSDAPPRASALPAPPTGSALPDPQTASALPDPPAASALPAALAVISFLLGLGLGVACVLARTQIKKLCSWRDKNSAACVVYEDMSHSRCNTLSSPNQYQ
Test: FACS on Jurkat, Molt4, CEM and Hut78 cells that highly express human CD7; antibody at 0.15 µg/100 µl
Protocol: Binding of the monoclonal antibody HIT7 in Example 1 and the commercialized CD7-6B7 antibody (Biolegend, PE/Cyanine7 anti-human CD7 antibody, clone number CD7-6B7) to CD7 on the surface of Jurkat, Molt4, CCRF-CEM, and Hut78 cells that highly expressed human CD7 was tested by FACS: The antibody was incubated at a concentration of 0.15 μg/100 μl with 2×10⁵ Jurkat, Molt4, CEM, and Hut78 cells respectively at 4° C. in dark for 30 minutes, washed twice with PBS, resuspended by 100 μl, and loaded for FACS test.

binding result: binds
B1: monoclonal antibody HIT7 (antibody, V domains shown)
VH: QVQLQESGPGLVKPSQTVSLTCTVTGISITTGNYRWSWIRQFPGNKLEWIGYIYYSGIITYNPSRTSRTTITRDISKNQFFLEMNSLTAEDTATYYCARERGIYYDSLWYFDVWGAGTTVTVSS
VL: DIVLTQSPASLAVSLGQRATISCRASKSVSASGYSYMHWYQQKPGQPPKLLIYLASNLESGVPARFSGSGSGTDFTLNIHPVEEEDAVTYYCQHSRELPYTFGGGTKLEIKR
notes: also called CD7-HIT7 monoclonal antibody; mouse anti-human CD7 monoclonal antibody
